Data as given in patent US11833164B2, “Methods of treating Fabry disease in patients having a mutation in the GLA gene” (Amicus Therapeutics, Inc., priority 2019, dated 2023).
Changes are numbered by the printed parent chain. Numbers in names are those of the source.

B1: Q312K (protein)
chain: MQLRNPELHLGCALALRFLALVSWDIPGARALDNGLARTPTMGWLHWERFMCNLDCQEEPDSCISEKLFMEMAELMVSEGWKDAGYEYLCIDDCWMAPQRDSEGRLQADPQRFPHGIRQLANYVHSKGLKLGIYADVGNKTCAGFPGSFGYYDIDAQTFADWGVDLLKFDGCYCDSLENLADGYKHMSLALNRTGRSIVYSCEWPLYMWPFQKPNYTEIRQYCNHWRNFADIDDSWKSIKSILDWTSFNQERIVDVAGPGGWNDPDMLVIGNFGLSWNQQVTQMALWAIMAAPLFMSNDLRHISPQAKALLKDKDVIAINQDPLGKQGYQLRQGDNFEVWERPLSGLAWAVAMINRQEIGGPRSYTIAVASLGKGVACNPACFITQLLPVKRKLGFYEWTSRLRSHINPTGTVLLQLENTMQMSLKDLL
B2: D315G (protein)
chain: B1 chain with K312Q, D315G
B3: K314N (protein)
chain: B1 chain with K312Q, K314N
B4: D315Y (protein)
chain: B1 chain with K312Q, D315Y
B5: D315H (protein)
chain: B1 chain with K312Q, D315H
B6: K314M (protein)
chain: B1 chain with K312Q, K314M
B7: D315V (protein)
chain: B1 chain with K312Q, D315V
B8: K314E (protein)
chain: B1 chain with K312Q, K314E
B9: D313E (protein)
chain: B1 chain with K312Q, D313E
B10: V316L (protein)
chain: B1 chain with K312Q, V316L
B11: D313V (protein)
chain: B1 chain with K312Q, D313V
B12: D315N (protein)
chain: B1 chain with K312Q, D315N
B13: V316A (protein)
chain: B1 chain with K312Q, V316A
B14: Q312L (protein)
chain: B1 chain with K312L
B15: K314T (protein)
chain: B1 chain with K312Q, K314T
B16: D315A (protein)
chain: B1 chain with K312Q, D315A

system: mutant form of α-Gal A expressed in HEK-293 cells; experiment: HEK assay (GLP HEK / Migalastat Amenability Assay): α-Gal A activity in lysates of transiently transfected HEK-293 cells incubated with or without 10 μM migalastat; type: cell-based, human; details: 10 μM migalastat versus baseline
Procedure, shortened: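 HEK-293 cells transiently transfected with mutant α-Gal A and incubated with or without 10 μM migalastat; lysate activity given as nmol free 4-MU released per mg protein per hour. Values are mean±SEM.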

Row | Molecule | Absolute increase (% WT) | Relative increase
1 | B1 | 15.5 | 1.8
2 | B2 | 23.6 | 1.4
3 | B3 | 10.8 | 1.2
4 | B4 | 14.2 | 1.4
5 | B5 | 17.4 | 1.4
6 | B6 | 15.9 | 1.3
7 | B7 | 24.8 | 1.8
8 | B8 | 11.0 | 1.3
9 | B9 | 13.2 | 1.3
10 | B10 | 33.9 | 1.7
11 | B11 | 6.7 | 3.9
12 | B12 | 17.9 | 1.5
13 | B13 | 22.7 | 1.4
14 | B14 | 21.3 | 1.4
15 | B15 | 17.9 | 1.2
16 | B16 | 25.1 | 1.3

same assay, conditions: absence of migalastat; percentage of baseline wild-type α-Gal A activity; mean ± SEM

Row | Molecule | Baseline α-Gal A activity (% WT)
17 | B1 | 19.7 ± 1.4
18 | B2 | 49.7 ± 3.7
19 | B3 | 39.1 ± 3.4
20 | B4 | 34.5 ± 3.5
21 | B5 | 35.7 ± 2.8
22 | B6 | 50.9 ± 3.8
23 | B7 | 31.2 ± 3.6
24 | B8 | 37.7 ± 2.5
25 | B9 | 42.5 ± 2.3
26 | B10 | 47.4 ± 3.9
27 | B11 | 2.9 ± 0.2
28 | B12 | 34.1 ± 1.7
29 | B13 | 48.8 ± 4.1
30 | B14 | 50.1 ± 4.1
31 | B15 | 75.9 ± 4.4
32 | B16 | 68.3 ± 4.8

same assay, conditions: lysates of HEK-293 cells transiently transfected with the mutant form, incubated 5 days in absence of migalastat; mean ± SEM

Row | Molecule | Baseline α-Gal A activity [nmol/mg/h]
33 | B1 | 6733 ± 510
34 | B2 | 13326 ± 859
35 | B3 | 14205 ± 2418
36 | B4 | 9198 ± 1179
37 | B5 | 9791 ± 1077
38 | B6 | 18231 ± 2878
39 | B7 | 8191 ± 717
40 | B8 | 13026 ± 1767
41 | B9 | 14321 ± 1579
42 | B10 | 12854 ± 958
43 | B11 | 894 ± 33
44 | B12 | 8553 ± 425
45 | B13 | 13166 ± 1029
46 | B14 | 16986 ± 1428
47 | B15 | 25162 ± 2701
48 | B16 | 18519 ± 1370

same assay, conditions: lysates of HEK-293 cells transiently transfected with the mutant form, incubated 5 days with 10 μM migalastat; mean ± SEM

Row | Molecule | 10 μM migalastat α-Gal A activity [nmol/mg/h]
49 | B1 | 11934 ± 624
50 | B2 | 19115 ± 1697
51 | B3 | 17364 ± 2225
52 | B4 | 12674 ± 1008
53 | B5 | 14136 ± 1573
54 | B6 | 23043 ± 2838
55 | B7 | 14580 ± 1235
56 | B8 | 16765 ± 2098
57 | B9 | 18273 ± 1330
58 | B10 | 21812 ± 1450
59 | B11 | 3480 ± 580
60 | B12 | 13037 ± 869
61 | B13 | 18908 ± 1577
62 | B14 | 23967 ± 1400
63 | B15 | 30501 ± 2332
64 | B16 | 24758 ± 1512

same assay, conditions: with 10 μM migalastat, 5 days; percentage of baseline wild-type α-Gal A activity; mean ± SEM

Row | Molecule | 10 μM migalastat α-Gal A activity (% WT)
65 | B1 | 35.2 ± 1.8
66 | B2 | 73.3 ± 8
67 | B3 | 49.9 ± 2.6
68 | B4 | 48.7 ± 2.4
69 | B5 | 53.2 ± 5.5
70 | B6 | 66.8 ± 3.8
71 | B7 | 56 ± 6
72 | B8 | 48.7 ± 2.8
73 | B9 | 55.7 ± 1.9
74 | B10 | 81.3 ± 6.3
75 | B11 | 9.6 ± 0.9
76 | B12 | 52.1 ± 3.7
77 | B13 | 71.5 ± 7.1
78 | B14 | 71.5 ± 4.6
79 | B15 | 93.8 ± 4.5
80 | B16 | 93.4 ± 7
